Results: paper PMC4674680, “An in cellulo-derived structure of PAK4 in complex with its inhibitor Inka1” (Nature Communications, 2015)

How the values were obtained:
PAK4 = experiment: Co-immunoprecipitation of HA-Inka1 by FLAG-tagged PAK4 constructs; assay type: binding, human; settings: Fig. 1b; mammalian cells; PAK4* = RR48/49AE
Method: Transfection of cell culture and immunoprecipitation
Monkey COS-7 cells, human HEK293 and U2OS were grown in DMEM medium with 4,500 mg l^−1 glucose supplemented with 10% bovine calf serum (Hyclone). HeLa cells were grown in Eagle's MEM medium supplemented with L-glutamine, sodium bicarbonate, sodium pyruvate and 10% bovine calf serum. Transient transfections were performed with Lipofectamine 2000 according to recommended protocols. Typically, a total of 5 μg plasmid DNA was used per 60-mm dish; lysates were harvested 18 h later in ice-cold lysis buffer (0.5 ml; 25 mM HEPES, pH 7.3, 100 mM KCl, 5 mM MgCl2, 20 mM β-glycerophosphate, 5% glycerol, 0.5% Triton X-100, 5 mM dithiothreitol, 0.5 mM phenylmethyl sulfonyl fluoride, 1 mM Na3VO4 and 1 × protease inhibitor cocktail (Roche)). To test co-immunoprecipitation of proteins, the lysates were clarified by centrifugation (14,000g) and the clarified lysates were incubated while rolling (2 h) with 20 μl M2 anti-Flag Sepharose (Sigma-Aldrich, A2220). Rabbit anti-Flag (Sigma-Aldrich, F7425) or horseradish peroxidase-coupled anti-HA (Santa Cruz Biotechnology, sc-7392 HRP, 1 μg ml^−1) were used for western blot analysis.

PAK4cat = molecular target: T1, PAK4cat (Homo sapiens, UniProt O96013); experiment: In-vitro kinase assay, PAK4cat (phosphorylation of GST-Raf13); assay type: biochemical; settings: in vitro
T1 construct: PAK1 (1–545) and PAK4 (286–591), respectively; 6His (N); made in house; host or cells: Escherichia coli BL21-CodonPlus(DE3)
T1 sequence (O96013 286-591): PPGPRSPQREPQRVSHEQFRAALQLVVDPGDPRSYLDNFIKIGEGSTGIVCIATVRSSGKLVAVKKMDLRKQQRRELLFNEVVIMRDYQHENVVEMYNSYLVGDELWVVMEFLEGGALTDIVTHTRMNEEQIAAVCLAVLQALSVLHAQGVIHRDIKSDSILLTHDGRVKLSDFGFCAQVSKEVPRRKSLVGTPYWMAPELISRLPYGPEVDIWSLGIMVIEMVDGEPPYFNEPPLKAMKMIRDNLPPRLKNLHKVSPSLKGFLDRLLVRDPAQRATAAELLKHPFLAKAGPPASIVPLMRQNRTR
Method: Purified PAK1 or PAK4 (50 nM in 25–50 μl) were incubated with 10 μM GST-Raf1S338 peptide in 10 μM ATP (2 μCi of γ32P ATP) of kinase buffer (25 mM HEPES, pH 7.3, 0.1% Triton X-100, 50 mM KCl, 10 mM MgCl2, 1 mM dithiothreitol) at 30 °C for 20 min. Samples were analysed by SDS–PAGE or adsorption of the GST substrate mix onto polyvinylidene difluoride membranes, followed by extensive washing to remove free γ32P-ATP. The synthetic peptides of 95% purity, as determined by HPLC and mass spectrometric analyses (GenScript), were soluble in aqueous PBS. Stock solutions (10 mM) were quantified via calculated extinction coefficients and absorbance measurements at 280 nm and stored at −80 °C. The diluted peptides were incubated at the indicated concentrations with the kinase on ice (10 min) before addition of γ32P ATP and subsequent incubation at 30 °C. The synthetic peptide array (Jerini Biotools) was phosphorylated in situ as described previously.

- Binding to activated PAK4* (mutated AID) versus wild-type PAK4, in words (PAK4): significantly better than wild-type PAK4
B1: Inka1: endogenous PAK4 inhibitor, 30-kDa neural crest enriched protein (protein, UniProt Q96EL1 1-287, looked up)
PAK4-inhibitor INKA1: MDMHSARLDSFLSQLRWELLCGRDTGSPSMPGPLQPTSQTGPDVQPSHQLRASGALEEDSVCCVEEEEEEEEEAVVTEDRDAALGGPREHALDWDSGFSEVSGSTWREEELPVSQRPAPSAQPLRRQCLSVSGLPMPSRAPVASVPPVHHPRPKSTPDACLEHWQGLEAEDWTAALLNRGRSRQPLVLGDNCFADLVHNWMELPETGSEGGDGGGHRARARPPQFLLGLSEQLRRRLARARRTAMAGKRLSCPPRPEPELPADVSRFAALMSCRSRQPIICNDVSYL
- Affinity relative to AID or iBox-C, in words (PAK4cat): much higher affinity than the corresponding AID
